# Experimental data: publication PMC3018548 (Archives of biochemistry and biophysics, 2010)
# B1: Escherichia coli apo-manganese superoxide dismutase (wt apo-MnSOD) (enzyme, UniProt P00448 1-206, looked up)
# chain: MSYTLPSLPYAYDALEPHFDKQTMEIHHTKHHQTYVNNANAALESLPEFANLPVEELITKLDQLPADKKTVLRNNAGGHANHSLFWKGLKKGTTLQGDLKAAIERDFGSVDNFKAEFEKAAASRFGSGWAWLVLKGDKLAVVSTANQDSPLMGEAISGASGFPIMGLDVWEHAYYLKFQNRRPDYIKEFWNVVNWDEAAARFAAKK
# Biological target: the molecule itself
# Experiment: protein concentration dependence of fluorimetric metal uptake kinetics
protein,measurement,value
B1,Kd,6.6 ± 0.9 µM
